Experimental data: patent publication US11814663B2, “Microorganisms with improved 1,3-propanediol and butyric acid production” (METABOLIC EXPLORER, priority 2018, dated 2023)

Key:
Format in all cases: biochemical, Clostridium acetobutylicum ATCC824
[1] = substrate: OCC(O)CO; assay: Glycerol kinase activity towards glycerol (ADP appearance coupled to NADH oxidation), wild type; conditions: other: GlpK wt, pH 9, 30° C., 2 mM ATP, 0.01-50 mM glycerol
Source text: (§1) Three different point mutations were identified in glpK gene in the clone PD0557Vc05 leading to the mutant protein GlpK* with H22Y, A347T and V466M (table 2 above). In order to better characterize the effect of the mutations, we tested them individually or in combination. Therefore, the alleles coding for the mutated glycerol kinase were cloned into the expression plasmid pPAL7 (Biorad®) and the plasmids obtained were transformed into E. coli strain BL21(DE3) star to purify each mutated protein and perform biochemical experiments.
(§2) Cultures of the seven strains 1 to 7 for the overproduction of the proteins were realized in a 2 L Erlenmeyer flask, using LB broth (Bertani, 1951) that was supplemented with 5 g/L glucose and 100 mg/L of ampicillin. An overnight culture was used to inoculate a 500 mL culture to an OD600 nm of about 0.15. The culture was first kept on a shaker at 37° C. and 200 rpm until OD600 nm was about 0.5 and then the culture was moved on a second shaker at 25° C. and 200 rpm until OD600 nm was 0.6-0.8 (about one hour), before induction with 500 μM IPTG. The culture was kept at 25° C. and 200 rpm until OD600 nm was around 4, and then it was stopped. Cells were centrifuged at 7000 rpm, 5 minutes at 4° C., and then stored at −20° C. This protocol was the same for strains 1 to 7.
(§3) For each strain, about 250 mg of E. coli biomass was suspended in 40 ml of 100 mM potassium phosphate pH 7.6, and a protease inhibitor cocktail. The cells suspension (15 ml per conical tube) was sonicated on ice (Bandelin sonoplus, 70 w) in a 50 ml conical tube during 8 cycles of 30 sec with 30 sec intervals. After sonication, cells were incubated for 30 min at room temperature with 5 mM MgCl2 and 1 UI/ml of DNaseI. Cells debris were removed by centrifugation at 12000 g for 30 min at 4° C.
(§4) The proteins were purified from the crude cell-extract by affinity on a Profinity column (BIORAD, Bio-Scale Mini Profinity exact cartridge 5 ml) according to the protocol recommended by the manufacturer. The crude extract was loaded on a 5 ml Profinity exact cartridge equilibrated with 100 mM potassium phosphate pH 7.6. […] Protein concentration was measured using the Bradford protein assay.
(§5) Determination of kinetic parameters of GlpK wild type and mutants Glycerol kinase activity (GLPK) that catalyses the following reaction: Glycerol+ATP=>Glycerol-3-Phosphate+ADP, was determined by measuring the ADP appearance by enzymatic coupling to NADH oxidation. […] The oxidation of NADH was monitored at 30° C. by absorbance at 340 nm on a spectrophotometer (λ340=6290 M^−1 cm^−1).
(§6) One unit of enzyme activity was defined as the amount of enzyme catalyzing the decrease of 1 μmol of NADH per min. Kinetic parameters were determined with Sigmaplot by fitting to the Michaelis-Menten equation.

[2] = substrate: OCC(O)CO; assay: Glycerol kinase activity towards glycerol (ADP appearance coupled to NADH oxidation), A347T; conditions: other: GlpK* A347T, pH 9, 30° C., 2 mM ATP, 0.01-50 mM glycerol
Source text: as §1, §2, §3, §4, §5, §6

[3] = substrate: OCC(O)CO; assay: Glycerol kinase activity towards glycerol (ADP appearance coupled to NADH oxidation), A347T/V466M; conditions: other: GlpK* (A347T/V466M), pH 9, 30° C., 2 mM ATP, 0.01-50 mM glycerol
Source text: as §1, §2, §3, §4, §5, §6

[4] = substrate: OCC(O)CO; assay: Glycerol kinase activity towards glycerol (ADP appearance coupled to NADH oxidation), H22Y/A347T; conditions: other: GlpK* (H22Y/A347T), pH 9, 30° C., 2 mM ATP, 0.01-50 mM glycerol
Source text: as §1, §2, §3, §4, §5, §6

[5] = substrate: OCC(O)CO; assay: Glycerol kinase activity towards glycerol (ADP appearance coupled to NADH oxidation), V466M; conditions: other: GlpK* V466M, pH 9, 30° C., 2 mM ATP, 0.01-50 mM glycerol
Source text: as §1, §2, §3, §4, §5, §6

[6] = substrate: OCC(O)CO; assay: Glycerol kinase activity towards glycerol (ADP appearance coupled to NADH oxidation), H22Y; conditions: other: GlpK* H22Y, pH 9, 30° C., 2 mM ATP, 0.01-50 mM glycerol
Source text: as §1, §2, §3, §4, §5, §6

B1: Clostridium acetobutylicum glycerol kinase GlpK wt (glpK, CA_C1321, Uniprot Q97JG4), SEQ ID NO: 1 (Clostridium acetobutylicum ATCC 824) (protein)
chain: MKKYIIALDQGTTSSRAIIFDHEQNILEISQKEFTQIYPSKGWVEHNPLEIWSSQYGVLQEVMAKANITQENIAAIGITNQRETTIVWDKNTGEPVYNAIVWQCRRTADIVEGLKRDKEFSDYVKENTGLILDAYFSATKIKWILDNVEGAREKAEKGELLFGTVDTWLVWKLTNGKVHVTDYTNASRTMLYNIKELKWDERILRKLNIPRSMLPEVKNSSEVYGYTNLGGKGGIRVPIAGMAGDQQCALFGQTCFEEGSVKNTYGTGCFLLMNTGENIIQSKNGLVTTIAIGLEGKVQYALEGSVFVGGAVIQWIRDELKLVSDAADTEYFAKKVNDNGGVYVVPAFTGLGAPYWDMYARGAIFGLTRGANKNHIIRAALEAIAYQSRDLIDAMKEDSGCEITRIKVDGGASRNNLLMQFQADITGTEVVRPIITETTALGAAYLAGLAVGFWKSKEEIAEKWSVSEVYTPNLDEDEKIRLYNGWKRAVERVQGWEE
notes: GlpK wt; Q97JG4; made in house; host or cells: E. coli BL21(DE3) star
For B1, the Km [1] was 54 ± 1 µM, the Vmax [1] was 87734 ± 499 nmol/min/mg and the kcat [1] was 82.22 ± 0.467 s⁻¹. For the same protein, the kcat/Km [1] was 1.52e+06 ± 53000 M⁻¹ s⁻¹.

B2: Clostridium acetobutylicum glycerol kinase GlpK variant GlpK*(A347T), SEQ ID NO: 3 (Clostridium acetobutylicum ATCC 824; A347T) (protein)
chain: MKKYIIALDQGTTSSRAIIFDHEQNILEISQKEFTQIYPSKGWVEHNPLEIWSSQYGVLQEVMAKANITQENIAAIGITNQRETTIVWDKNTGEPVYNAIVWQCRRTADIVEGLKRDKEFSDYVKENTGLILDAYFSATKIKWILDNVEGAREKAEKGELLFGTVDTWLVWKLTNGKVHVTDYTNASRTMLYNIKELKWDERILRKLNIPRSMLPEVKNSSEVYGYTNLGGKGGIRVPIAGMAGDQQCALFGQTCFEEGSVKNTYGTGCFLLMNTGENIIQSKNGLVTTIAIGLEGKVQYALEGSVFVGGAVIQWIRDELKLVSDAADTEYFAKKVNDNGGVYVVPTFTGLGAPYWDMYARGAIFGLTRGANKNHIIRAALEAIAYQSRDLIDAMKEDSGCEITRIKVDGGASRNNLLMQFQADITGTEVVRPIITETTALGAAYLAGLAVGFWKSKEEIAEKWSVSEVYTPNLDEDEKIRLYNGWKRAVERVQGWEE
notes: GlpK*(A347T); made in house; host or cells: E. coli BL21(DE3) star
B2 gave a Km [2] of 260 ± 31 µM, a Vmax [2] of 6977 ± 155 nmol/min/mg and a kcat [2] of 6.538 ± 0.145 s⁻¹. It also gave a kcat/Km [2] of 24900 ± 3500 M⁻¹ s⁻¹.

B3: Clostridium acetobutylicum glycerol kinase GlpK variant GlpK*(A347T/V466M), SEQ ID NO: 11 (Clostridium acetobutylicum ATCC 824; A347T/V466M) (protein)
chain: MKKYIIALDQGTTSSRAIIFDHEQNILEISQKEFTQIYPSKGWVEHNPLEIWSSQYGVLQEVMAKANITQENIAAIGITNQRETTIVWDKNTGEPVYNAIVWQCRRTADIVEGLKRDKEFSDYVKENTGLILDAYFSATKIKWILDNVEGAREKAEKGELLFGTVDTWLVWKLTNGKVHVTDYTNASRTMLYNIKELKWDERILRKLNIPRSMLPEVKNSSEVYGYTNLGGKGGIRVPIAGMAGDQQCALFGQTCFEEGSVKNTYGTGCFLLMNTGENIIQSKNGLVTTIAIGLEGKVQYALEGSVFVGGAVIQWIRDELKLVSDAADTEYFAKKVNDNGGVYVVPTFTGLGAPYWDMYARGAIFGLTRGANKNHIIRAALEAIAYQSRDLIDAMKEDSGCEITRIKVDGGASRNNLLMQFQADITGTEVVRPIITETTALGAAYLAGLAVGFWKSKEEIAEKWSMSEVYTPNLDEDEKIRLYNGWKRAVERVQGWEE
notes: GlpK*(A347T/); made in house; host or cells: E. coli BL21(DE3) star
In the case of B3, the Km [3] is reported as 480 ± 48 µM, the Vmax [3] is reported as 6267 ± 175 nmol/min/mg and the kcat [3] is reported as 5.873 ± 0.163 s⁻¹. It also gave a kcat/Km [3] of 12310 ± 1600 M⁻¹ s⁻¹.

B4: Clostridium acetobutylicum glycerol kinase GlpK variant GlpK*(H22Y/A347T), SEQ ID NO: 9 (Clostridium acetobutylicum ATCC 824; A347T/H22Y) (protein)
chain: MKKYIIALDQGTTSSRAIIFDYEQNILEISQKEFTQIYPSKGWVEHNPLEIWSSQYGVLQEVMAKANITQENIAAIGITNQRETTIVWDKNTGEPVYNAIVWQCRRTADIVEGLKRDKEFSDYVKENTGLILDAYFSATKIKWILDNVEGAREKAEKGELLFGTVDTWLVWKLTNGKVHVTDYTNASRTMLYNIKELKWDERILRKLNIPRSMLPEVKNSSEVYGYTNLGGKGGIRVPIAGMAGDQQCALFGQTCFEEGSVKNTYGTGCFLLMNTGENIIQSKNGLVTTIAIGLEGKVQYALEGSVFVGGAVIQWIRDELKLVSDAADTEYFAKKVNDNGGVYVVPTFTGLGAPYWDMYARGAIFGLTRGANKNHIIRAALEAIAYQSRDLIDAMKEDSGCEITRIKVDGGASRNNLLMQFQADITGTEVVRPIITETTALGAAYLAGLAVGFWKSKEEIAEKWSVSEVYTPNLDEDEKIRLYNGWKRAVERVQGWEE
notes: GlpK*(H22Y/); made in house; host or cells: E. coli BL21(DE3) star
For B4, the Km [4] was 620 ± 50 µM, the Vmax [4] was 9784 ± 195 nmol/min/mg and the kcat [4] was 9.08 ± 0.183 s⁻¹. It also gave a kcat/Km [4] of 14700 ± 1500 M⁻¹ s⁻¹.

B5: Clostridium acetobutylicum glycerol kinase GlpK variant GlpK*(V466M), SEQ ID NO: 7 (Clostridium acetobutylicum ATCC 824; V466M) (protein)
chain: MKKYIIALDQGTTSSRAIIFDHEQNILEISQKEFTQIYPSKGWVEHNPLEIWSSQYGVLQEVMAKANITQENIAAIGITNQRETTIVWDKNTGEPVYNAIVWQCRRTADIVEGLKRDKEFSDYVKENTGLILDAYFSATKIKWILDNVEGAREKAEKGELLFGTVDTWLVWKLTNGKVHVTDYTNASRTMLYNIKELKWDERILRKLNIPRSMLPEVKNSSEVYGYTNLGGKGGIRVPIAGMAGDQQCALFGQTCFEEGSVKNTYGTGCFLLMNTGENIIQSKNGLVTTIAIGLEGKVQYALEGSVFVGGAVIQWIRDELKLVSDAADTEYFAKKVNDNGGVYVVPAFTGLGAPYWDMYARGAIFGLTRGANKNHIIRAALEAIAYQSRDLIDAMKEDSGCEITRIKVDGGASRNNLLMQFQADITGTEVVRPIITETTALGAAYLAGLAVGFWKSKEEIAEKWSMSEVYTPNLDEDEKIRLYNGWKRAVERVQGWEE
notes: GlpK*(V466M); made in house; host or cells: E. coli BL21(DE3) star
Protein B5 has a Km [5] of 58 ± 3 µM, a Vmax [5] of 60399 ± 537 nmol/min/mg and a kcat [5] of 56.6 ± 0.5 s⁻¹. It also gave a kcat/Km [5] of 973000 ± 52000 M⁻¹ s⁻¹.

B6: Clostridium acetobutylicum glycerol kinase GlpK variant GlpK*(H22Y), SEQ ID NO: 5 (Clostridium acetobutylicum ATCC 824; H22Y) (protein)
chain: MKKYIIALDQGTTSSRAIIFDYEQNILEISQKEFTQIYPSKGWVEHNPLEIWSSQYGVLQEVMAKANITQENIAAIGITNQRETTIVWDKNTGEPVYNAIVWQCRRTADIVEGLKRDKEFSDYVKENTGLILDAYFSATKIKWILDNVEGAREKAEKGELLFGTVDTWLVWKLTNGKVHVTDYTNASRTMLYNIKELKWDERILRKLNIPRSMLPEVKNSSEVYGYTNLGGKGGIRVPIAGMAGDQQCALFGQTCFEEGSVKNTYGTGCFLLMNTGENIIQSKNGLVTTIAIGLEGKVQYALEGSVFVGGAVIQWIRDELKLVSDAADTEYFAKKVNDNGGVYVVPAFTGLGAPYWDMYARGAIFGLTRGANKNHIIRAALEAIAYQSRDLIDAMKEDSGCEITRIKVDGGASRNNLLMQFQADITGTEVVRPIITETTALGAAYLAGLAVGFWKSKEEIAEKWSVSEVYTPNLDEDEKIRLYNGWKRAVERVQGWEE
notes: GlpK*(H22Y); made in house; host or cells: E. coli BL21(DE3) star
In the case of B6, the Km [6] is reported as 70 ± 4 µM, the Vmax [6] is reported as 91725 ± 1186 nmol/min/mg and the kcat [6] is reported as 85.97 ± 1.12 s⁻¹. The kcat/Km [6] was 1.229e+06 ± 93000 M⁻¹ s⁻¹.
